Data published in patent US20020165128A1, “Compositions and methods for proteolytically inactivating infectious agents using lactoferrin and related molecules” (priority 1998, published 2002).
Like-named read-outs stand apart in the source and are kept apart here.

Tests used:
[1] = target: peptide fragments of IgA1 protease (Haemophilus influenzae, UniProt P44969); conditions: 60 amino acid peptide ending at Arg1397; similar with the 80, 40 and 20 amino acid peptides
Description: To further define the site of cleavage of the IgA1 protease precursor protein, N-Iga was resolved on an SDS-PAGE gel, then stained with Coomassie blue and excised. The excised band was subjected to Lys-C digestion, and mass spectrometry was performed. […] Subsequently, these peptides were treated with lactoferrin and then examined the reaction mixtures by mass spectrometry.
Digests involving lactoferrin and synthetic peptides were extracted twice with 50 μL acetonitrile/2% TFA and then dried and resuspended in matrix solution for analysis by MALDI mass spectrometry.

[2] = target: T1, 20 amino acid peptide Ala1007-Phe1026 of Hap (Haemophilus influenzae, UniProt P45387); experiment: Lactoferrin cleavage of synthetic Hap peptide, mass spectrometry; type: biochemical
T1 construct: a 20 amino acid peptide corresponding to residues Ala1007-Phe1026 of Hap was synthesized; made in house; host or cells: chemical synthesis (f-moc), Protein Chemistry Laboratory at Tufts University
Excerpt: Next, a 20 amino acid peptide corresponding to residues Ala1007-Phe1026 of Hap was synthesized and subjected to cleavage by milk lactoferrin.

[3] = target: H. influenzae IgA1 protease precursor (Haemophilus influenzae, UniProt P44969, S288V)
Description: The Rd strain was grown in brain heart-infusion broth supplemented with hemin (10 μg/ml) and nicotinamide adenine dinucleotide (2 μg/ml) to mid-log phase, and then harvested by centrifugation.
All samples were collected in sterile beakers; within 6 hours of collection they were centrifuged at 10,000×g for 20 min at 4 C to remove lipids and cells. The resulting whey was stored at −70 C and was prepared for use by thawing slowly, without further modifications. 2×10^9 H. influenzae cells were resuspended in 1 ml of the unmodified human milk whey and incubated at 37 C with gentle mixing. Samples were removed at intervals between 2 minutes and 1 hour. Whole cells and supernatants were examined by Western immunoblot using antisera directed against all domains of the preprotein.
Mid-log phase Rd3-13 bacteria were incubated in milk whey, and aliquots were removed at the times shown.
The antiserum used was anti-Rd3-13, which reacts with IgAp, IgAa, and IgAb.

[4] = target: T2, H. influenzae Hap adhesin (Haemophilus influenzae, UniProt P45387); type: cell-based; conditions: DB117 expressing wild-type Hap, 13 μM
T2 construct: expressed in transfected cells; host or cells: H. influenzae strain DB117 carrying pJS106
T2 sequence (P45387 26-1394): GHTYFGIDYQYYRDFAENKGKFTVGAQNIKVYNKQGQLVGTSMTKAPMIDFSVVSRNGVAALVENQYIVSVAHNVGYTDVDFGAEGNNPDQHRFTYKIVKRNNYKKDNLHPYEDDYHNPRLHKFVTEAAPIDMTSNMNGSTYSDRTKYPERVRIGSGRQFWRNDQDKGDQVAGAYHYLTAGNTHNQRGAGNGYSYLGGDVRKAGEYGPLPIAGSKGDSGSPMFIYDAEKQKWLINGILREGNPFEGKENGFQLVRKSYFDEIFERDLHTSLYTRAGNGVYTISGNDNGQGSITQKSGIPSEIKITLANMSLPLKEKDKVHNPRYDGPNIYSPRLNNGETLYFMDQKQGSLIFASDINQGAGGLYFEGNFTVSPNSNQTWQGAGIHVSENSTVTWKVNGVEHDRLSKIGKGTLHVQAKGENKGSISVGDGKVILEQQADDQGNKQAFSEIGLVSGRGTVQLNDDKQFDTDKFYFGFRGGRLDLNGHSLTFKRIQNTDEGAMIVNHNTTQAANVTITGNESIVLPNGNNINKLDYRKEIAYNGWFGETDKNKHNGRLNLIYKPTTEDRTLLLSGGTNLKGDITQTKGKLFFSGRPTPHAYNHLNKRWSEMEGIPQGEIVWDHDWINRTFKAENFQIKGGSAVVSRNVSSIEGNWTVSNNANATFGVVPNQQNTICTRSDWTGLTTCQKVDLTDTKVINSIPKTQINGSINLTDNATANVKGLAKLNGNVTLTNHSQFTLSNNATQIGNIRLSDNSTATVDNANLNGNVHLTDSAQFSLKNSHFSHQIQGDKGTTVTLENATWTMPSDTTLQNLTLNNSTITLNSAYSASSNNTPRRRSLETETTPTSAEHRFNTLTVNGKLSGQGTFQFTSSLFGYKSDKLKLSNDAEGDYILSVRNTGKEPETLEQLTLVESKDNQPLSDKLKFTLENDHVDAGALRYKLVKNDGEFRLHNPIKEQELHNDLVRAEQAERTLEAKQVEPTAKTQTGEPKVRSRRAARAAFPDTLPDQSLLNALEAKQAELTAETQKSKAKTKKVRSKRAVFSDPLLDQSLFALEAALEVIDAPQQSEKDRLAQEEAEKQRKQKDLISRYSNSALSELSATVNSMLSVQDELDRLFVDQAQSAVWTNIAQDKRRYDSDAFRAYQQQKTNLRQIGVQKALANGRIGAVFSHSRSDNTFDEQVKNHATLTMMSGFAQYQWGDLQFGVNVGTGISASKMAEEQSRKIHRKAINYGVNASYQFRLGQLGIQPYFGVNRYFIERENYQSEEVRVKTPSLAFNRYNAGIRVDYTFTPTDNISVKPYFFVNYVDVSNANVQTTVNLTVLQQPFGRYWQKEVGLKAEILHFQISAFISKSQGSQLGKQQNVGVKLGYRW

[5] = tested on: H. influenzae Hap adhesin; type: cell-based, Haemophilus influenzae; conditions: lowest concentration (87 nM), treatment of cells for 1 hour
[6] = target: T3, H. influenzae Hap adhesin (Haemophilus influenzae, UniProt P45387, S243A); type: cell-based; conditions: DB117 expressing HapS243A, 13 μM, whole cells
T3 construct: expressed in transfected cells; host or cells: H. influenzae strain DB117 carrying pJS106
T3 sequence (P45387 26-1394 S243A): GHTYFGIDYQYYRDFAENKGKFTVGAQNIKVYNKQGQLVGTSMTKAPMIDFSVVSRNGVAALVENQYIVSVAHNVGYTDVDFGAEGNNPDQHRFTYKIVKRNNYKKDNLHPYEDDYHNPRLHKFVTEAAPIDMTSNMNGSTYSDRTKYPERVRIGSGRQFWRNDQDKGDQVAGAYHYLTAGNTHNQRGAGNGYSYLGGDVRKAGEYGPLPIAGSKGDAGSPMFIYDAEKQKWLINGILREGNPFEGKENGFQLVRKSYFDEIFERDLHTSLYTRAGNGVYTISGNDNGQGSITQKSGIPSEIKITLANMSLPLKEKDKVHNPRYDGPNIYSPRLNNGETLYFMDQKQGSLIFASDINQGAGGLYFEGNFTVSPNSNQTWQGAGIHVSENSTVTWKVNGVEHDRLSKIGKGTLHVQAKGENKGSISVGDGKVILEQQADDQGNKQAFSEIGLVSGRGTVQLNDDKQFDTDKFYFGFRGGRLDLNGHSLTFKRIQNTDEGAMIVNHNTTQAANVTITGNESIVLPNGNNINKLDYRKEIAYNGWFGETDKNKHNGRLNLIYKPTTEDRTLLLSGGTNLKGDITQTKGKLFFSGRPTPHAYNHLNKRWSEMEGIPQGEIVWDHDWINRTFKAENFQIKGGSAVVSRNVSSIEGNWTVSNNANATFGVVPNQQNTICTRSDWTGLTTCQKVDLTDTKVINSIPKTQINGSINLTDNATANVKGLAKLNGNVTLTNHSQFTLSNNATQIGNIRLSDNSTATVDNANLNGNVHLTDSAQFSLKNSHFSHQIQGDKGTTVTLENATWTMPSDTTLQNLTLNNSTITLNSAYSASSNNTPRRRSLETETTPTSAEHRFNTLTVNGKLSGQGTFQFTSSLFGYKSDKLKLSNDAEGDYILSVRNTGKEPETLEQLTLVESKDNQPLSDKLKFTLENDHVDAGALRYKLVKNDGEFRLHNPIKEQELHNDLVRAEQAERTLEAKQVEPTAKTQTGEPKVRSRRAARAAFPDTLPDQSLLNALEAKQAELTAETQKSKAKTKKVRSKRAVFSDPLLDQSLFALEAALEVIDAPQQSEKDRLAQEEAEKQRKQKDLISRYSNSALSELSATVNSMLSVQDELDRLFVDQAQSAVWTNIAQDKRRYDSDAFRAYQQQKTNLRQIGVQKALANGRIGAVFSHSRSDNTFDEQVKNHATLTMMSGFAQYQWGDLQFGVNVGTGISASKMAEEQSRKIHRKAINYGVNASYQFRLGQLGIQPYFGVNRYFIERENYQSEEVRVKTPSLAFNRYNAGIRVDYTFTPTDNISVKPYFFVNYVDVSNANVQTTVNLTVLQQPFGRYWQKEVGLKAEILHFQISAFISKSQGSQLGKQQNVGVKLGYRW

H. influenzae IgA1 protease precursor, sequence (P44969 26-1694 S288V): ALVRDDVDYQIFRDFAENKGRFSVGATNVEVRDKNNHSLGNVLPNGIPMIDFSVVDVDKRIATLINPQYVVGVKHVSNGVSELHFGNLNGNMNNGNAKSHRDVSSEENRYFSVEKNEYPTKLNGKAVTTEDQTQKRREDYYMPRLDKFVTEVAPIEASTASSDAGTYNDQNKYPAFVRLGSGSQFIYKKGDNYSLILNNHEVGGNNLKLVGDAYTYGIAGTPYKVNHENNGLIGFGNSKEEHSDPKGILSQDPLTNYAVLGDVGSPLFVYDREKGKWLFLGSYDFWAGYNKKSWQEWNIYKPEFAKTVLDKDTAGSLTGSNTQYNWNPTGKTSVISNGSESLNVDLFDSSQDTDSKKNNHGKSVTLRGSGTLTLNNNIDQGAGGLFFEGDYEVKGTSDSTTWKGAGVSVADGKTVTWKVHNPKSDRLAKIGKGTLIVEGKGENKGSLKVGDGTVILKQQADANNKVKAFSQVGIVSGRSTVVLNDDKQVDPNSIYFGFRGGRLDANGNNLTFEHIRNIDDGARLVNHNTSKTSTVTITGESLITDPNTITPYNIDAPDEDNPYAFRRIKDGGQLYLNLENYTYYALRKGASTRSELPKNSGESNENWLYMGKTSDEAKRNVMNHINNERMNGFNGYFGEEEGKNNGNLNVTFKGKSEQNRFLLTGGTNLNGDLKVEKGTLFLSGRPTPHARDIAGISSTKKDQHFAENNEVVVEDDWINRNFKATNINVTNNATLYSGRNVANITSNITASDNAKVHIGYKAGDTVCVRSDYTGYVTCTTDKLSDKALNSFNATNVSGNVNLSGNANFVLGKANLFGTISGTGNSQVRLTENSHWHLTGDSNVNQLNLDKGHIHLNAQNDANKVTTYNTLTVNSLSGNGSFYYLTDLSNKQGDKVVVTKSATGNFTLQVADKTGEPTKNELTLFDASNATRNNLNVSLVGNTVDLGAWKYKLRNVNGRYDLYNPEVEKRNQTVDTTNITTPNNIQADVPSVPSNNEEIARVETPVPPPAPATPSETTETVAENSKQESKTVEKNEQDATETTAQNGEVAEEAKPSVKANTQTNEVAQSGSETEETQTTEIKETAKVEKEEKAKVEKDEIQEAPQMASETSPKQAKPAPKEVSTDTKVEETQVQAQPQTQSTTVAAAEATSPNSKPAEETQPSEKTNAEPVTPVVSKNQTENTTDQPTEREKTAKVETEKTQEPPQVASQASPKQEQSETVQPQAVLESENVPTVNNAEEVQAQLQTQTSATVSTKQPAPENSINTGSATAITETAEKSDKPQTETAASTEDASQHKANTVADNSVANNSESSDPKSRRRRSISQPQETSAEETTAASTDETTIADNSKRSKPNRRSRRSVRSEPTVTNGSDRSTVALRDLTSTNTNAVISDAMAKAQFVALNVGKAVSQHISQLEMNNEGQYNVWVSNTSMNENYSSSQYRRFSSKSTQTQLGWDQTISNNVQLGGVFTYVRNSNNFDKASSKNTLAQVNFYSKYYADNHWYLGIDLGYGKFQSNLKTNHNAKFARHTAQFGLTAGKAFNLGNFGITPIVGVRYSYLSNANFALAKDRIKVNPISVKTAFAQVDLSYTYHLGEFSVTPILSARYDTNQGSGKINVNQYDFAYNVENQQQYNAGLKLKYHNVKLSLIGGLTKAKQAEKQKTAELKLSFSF
peptide fragments of IgA1 protease, sequence (P44969 1338-1397): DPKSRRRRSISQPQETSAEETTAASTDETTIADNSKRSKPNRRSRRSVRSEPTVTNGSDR

B1: human milk lactoferrin: lactoferrin purified from human milk whey using anion exchange and molecular sieve chromatography (protein, UniProt P02788 20-710, looked up)
Lactotransferrin: GRRRSVQWCAVSQPEATKCFQWQRNMRKVRGPPVSCIKRDSPIQCIQAIAENRADAVTLDGGFIYEAGLAPYKLRPVAAEVYGTERQPRTHYYAVAVVKKGGSFQLNELQGLKSCHTGLRRTAGWNVPIGTLRPFLNWTGPPEPIEAAVARFFSASCVPGADKGQFPNLCRLCAGTGENKCAFSSQEPYFSYSGAFKCLRDGAGDVAFIRESTVFEDLSDEAERDEYELLCPDNTRKPVDKFKDCHLARVPSHAVVARSVNGKEDAIWNLLRQAQEKFGKDKSPKFQLFGSPSGQKDLLFKDSAIGFSRVPPRIDSGLYLGSGYFTAIQNLRKSEEEVAARRARVVWCAVGEQELRKCNQWSGLSEGSVTCSSASTTEDCIALVLKGEADAMSLDGGYVYTAGKCGLVPVLAENYKSQQSSDPDPNCVDRPVEGYLAVAVVRRSDTSLTWNSVKGKKSCHTAVDRTAGWNIPMGLLFNQTGSCKFDEYFSQSCAPGSDPRSNLCALCIGDEQGENKCVPNSNERYYGYTGAFRCLAENAGDVAFVKDVTVLQNTDGNNNEAWAKDLKLADFALLCLDGKRKPVTEARSCHLAMAPNHAVVSRMDKVERLKQVLLHQQAKFGRNGSDCPDKFCLFQSETKNLLFNDNTECLARLHGKTTYEKYLGPQYVAGITNLKKCSTSPLLEACEFLRK
cleavage site in IgA1 protease peptides [1]: cleavage between Arg1382 and Arg1383 and between Arg1383 and Ser1384 | cleavage site in Hap peptide [2]: cleavage between Arg1019 and Arg1020 and between Arg1020 and Ala1021 | removal of IgA protease precursor ([3]; Rd3-13, 30 min. incubation, bacterial cell pellet): small amount of precursor protein remaining | removal of IgA protease precursor ([3]; Rd3-13, after 15 minutes): a large amount of precursor has been proteolytically removed | effect on Hap [4]: resulted in proteolysis, rather than extraction of Hap | proteolysis of Hap [5]: proteolysis detectable but incomplete | effect on Hap preprotein [6]: loss of the Hap preprotein and generation of a Hap C-terminal fragment
